Among the data in US20020127702, “Methods and compositions for regulating cell cycle progression” (published 2002) are binding result, binding signal and Kd values, retold here.

Data set [1] deals with T1, hCdc5 DNA-binding domain (aa 1-500) (Homo sapiens, UniProt Q99459 SEQ:1-500). Nature of the data set: EMSA; amino terminus of hCdc5. The following applies: tags: His6 fusion (pET29c(+), E. coli BL21(DE3), Ni-NTA); chain copies: forms homodimers by glutaraldehyde cross-linking in vitro. From the text:
(§1) To determine whether hCdc5 interacts with specific genomic sequences through direct DNA binding, we first surveyed the 12 genomic sequences (totaling ˜36,200 bp) identified by binding selection in yeast for the synthetic consensus binding sequence identified by cyclic amplification and selection in the example above. An exact match was not found, although this was not surprising as the likelihood of finding a unique 12 bp sequence is 6×10⁻⁸, and is predicted to occur by chance ˜180 times in the human genome. We then used the information obtained by scanning mutagenesis to look for sites containing the core “ANCA” motif flanked by palindromes within the genomic clones. […] Complementary oligonucleotides representing the sequences in Table 2 flanked by the non-random oligo flanking sequences used in the oligonucleotide selection experiments described above were used for the gel shift assays. Two of these active binding sites were found in the two clones which represented overlapping sequences from the same region of the genome (clones 6 and 30). All 3 sites shared features of the consensus binding sequence: a core “ANCA” motif, AT-rich flanking palindromes, and a distance between core and palindromes of no more than 3 bp.
Background: A gel shift assay detects complexes by their altered migration in electrophoresis.

The target in data set [2] is T1, hCdc5 DNA-binding domain (aa 1-500). Nature of the data set: EMSA; text: abolished. Particulars: tags: His6 fusion (pET29c(+), E. coli BL21(DE3), Ni-NTA); chain copies: forms homodimers by glutaraldehyde cross-linking in vitro; label: 32P. How it is done:
Labeled oligonucleotides bearing substitutions in each of the bases comprising the consensus sequence were incubated with recombinant His₆-hCdc5 and gel shift assays were carried out as described above to determine the binding affinities for the mutated sequences. […] Substitutions at any other position abolished DNA-protein binding implicating these residues as critical for the interaction.

The target is the same in data set [3]. Kind of data set: EMSA; single-stranded antisense. Particulars: tags: His6 fusion (pET29c(+), E. coli BL21(DE3), Ni-NTA); chain copies: forms homodimers by glutaraldehyde cross-linking in vitro.
The target is the same in data set [4]. Nature of the data set: EMSA; data not shown; protein construct not specified. Particulars: tags: His6 fusion (pET29c(+), E. coli BL21(DE3), Ni-NTA); chain copies: forms homodimers by glutaraldehyde cross-linking in vitro.
The target of data set [5] is hCdc5 W31G W53G W82G mutant (Homo sapiens, UniProt Q99459 SEQ:1-500, W31G,W53G,W82G). Kind of data set: EMSA; data not shown. Particulars: label: 32P.
Data set [6] concerns the target T1, hCdc5 DNA-binding domain (aa 1-500). Kind of data set: EMSA; 1 nM DNA, 2.5-40 nM protein; 10 mM HEPES pH 7.8, 75 mM KCl, 2.5 mM MgCl2, poly(dI-dC), room temperature. Particulars: tags: His6 fusion (pET29c(+), E. coli BL21(DE3), Ni-NTA); chain copies: forms homodimers by glutaraldehyde cross-linking in vitro; label: 32P.
Data set [7] has the same target. Kind of data set: EMSA; single-stranded sense. The following applies: tags: His6 fusion (pET29c(+), E. coli BL21(DE3), Ni-NTA); chain copies: forms homodimers by glutaraldehyde cross-linking in vitro.
For data set [8] the target is unchanged. Nature of the data set: EMSA; amino terminus of hCdc5; clones 6 and 30 overlap; clone 6 printed as … in table but SEQ 15 given. Particulars: tags: His6 fusion (pET29c(+), E. coli BL21(DE3), Ni-NTA); chain copies: forms homodimers by glutaraldehyde cross-linking in vitro.
Source text: as §1

T1 sequence (Q99459 1-500): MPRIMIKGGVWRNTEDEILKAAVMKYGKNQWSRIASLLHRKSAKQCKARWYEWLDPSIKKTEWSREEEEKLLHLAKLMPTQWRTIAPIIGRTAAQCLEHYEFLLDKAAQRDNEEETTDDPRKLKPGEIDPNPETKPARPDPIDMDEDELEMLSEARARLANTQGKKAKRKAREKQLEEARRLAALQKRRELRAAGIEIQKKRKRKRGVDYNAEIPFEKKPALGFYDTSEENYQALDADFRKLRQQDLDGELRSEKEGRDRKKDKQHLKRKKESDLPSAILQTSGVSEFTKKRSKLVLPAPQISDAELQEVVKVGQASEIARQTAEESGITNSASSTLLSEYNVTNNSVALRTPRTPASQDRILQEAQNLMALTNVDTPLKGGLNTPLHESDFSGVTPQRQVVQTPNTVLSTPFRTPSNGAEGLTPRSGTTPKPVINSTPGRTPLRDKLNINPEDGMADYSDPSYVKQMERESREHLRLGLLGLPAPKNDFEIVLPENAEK
Sequence of hCdc5 W31G W53G W82G mutant (Q99459 1-500 W31G/W53G/W82G): as the sequence (Q99459 1-500) above, with W31G, W53G, W82G counted along it

B1: genomic clone 12 site 2 (dsDNA)
DNA 1: CGCTCGAGGGATCCGAATTCCCCCCCTTTAAACCAGCGTGGAGGGGGGTCTAGAAAGCTTGTCGACGC
DNA 2: GCGTCGACAAGCTTTCTAGACCCCCCTCCACGCTGGTTTAAAGGGGGGGAATTCGGATCCCTCGAGCG
In the case of B1, the binding result in data set [1] was “no binding”.

B2: consensus mutant position 6 (dsDNA)
DNA 1: GATTTCACATAA
DNA 2: TTATGTGAAATC
With B2, the binding signal in data set [2] is 0.1 fraction of control.

B3: genomic clone 25 site (dsDNA)
DNA 1: CGCTCGAGGGATCCGAATTCAATTCCCCGGATCATTGCAAACAATTTCTAGAAAGCTTGTCGACGC
DNA 2: GCGTCGACAAGCTTTCTAGAAATTGTTTGCAATGATCCGGGGAATTGAATTCGGATCCCTCGAGCG
On to B3, for which the binding result in data set [1] is listed as “no binding”.

B4: genomic clone 8 site (dsDNA)
DNA 1: CGCTCGAGGGATCCGAATTCAATGAACGAATCAAATTTCTAGAAAGCTTGTCGACGC
DNA 2: GCGTCGACAAGCTTTCTAGAAATTTGATTCGTTCATTGAATTCGGATCCCTCGAGCG
For B4, the binding result in data set [1] is recorded as “no binding”.

Turning to TTATGTTAAATC (ssDNA, [NONE]) [consensus site single-stranded antisense], in data set [3], the binding result is reported as “no binding”.

B5: new-palindrome mutant GATGTAACATAC (dsDNA)
DNA 1: GATGTAACATAC
DNA 2: GTATGTTACATC
Regarding B5, the binding result in data set [4] is “no binding”.

B6: consensus mutant position 11 (dsDNA)
DNA 1: GATTTAACATCA
DNA 2: TGATGTTAAATC
Take B6: the binding signal in data set [2] was 0.2 fraction of control.

B7: consensus mutant position 10 (dsDNA)
DNA 1: GATTTAACAGAA
DNA 2: TTCTGTTAAATC
For the molecule B7, the binding signal in data set [2] is 0.2 fraction of control.

B8: consensus mutant position 4 (dsDNA)
DNA 1: GATGTAACATAA
DNA 2: TTATGTTACATC
With B8, the binding signal in data set [2] was 0.2 fraction of control.

B9: genomic clone 12 site 1 (dsDNA)
DNA 1: CGCTCGAGGGATCCGAATTCAAAGGGGAACACTTTTCTAGAAAGCTTGTCGACGC
DNA 2: GCGTCGACAAGCTTTCTAGAAAAGTGTTCCCCTTTGAATTCGGATCCCTCGAGCG
Take B9: in data set [1], the binding result is on record as “binds”.

B10: new-palindrome mutant GATATAACATAT (dsDNA)
DNA 1: GATATAACATAT
DNA 2: ATATGTTATATC
On to B10, for which the binding result in data set [4] was “no binding”.

B11: consensus mutant position 3 (dsDNA)
DNA 1: GAGTTAACATAA
DNA 2: TTATGTTAACTC
Regarding B11, in data set [2], the binding signal is 0.2 fraction of control.

B12: hCdc5 consensus site (dsDNA)
DNA 1: GATTTAACATAA
DNA 2: TTATGTTAAATC
The term Kd denotes the free concentration of one partner at which half of the binding sites on the other are occupied at equilibrium, for simple one-to-one binding. Read a low Kd as tighter binding. As to B12, in data set [5], the binding result was “no binding”. Further, the Kd in data set [6] is ~10 nM.

B13: consensus mutant position 8 (dsDNA)
DNA 1: GATTTAATATAA
DNA 2: TTATATTAAATC
Regarding B13, the binding signal in data set [2] was 0.2 fraction of control.

B14: consensus mutant position 9 (dsDNA)
DNA 1: GATTTAACCTAA
DNA 2: TTAGGTTAAATC
For the molecule B14, the binding signal in data set [2] is 0.2 fraction of control.

Consider GATTTAACATAA (ssDNA) [consensus site single-stranded sense], for which the binding result in data set [7] is on record as “no binding”.

B15: genomic clone 6/30 site (dsDNA)
DNA 1: CGCTCGAGGGATCCGAATTCAATAAAATCAAAATTTCTAGAAAGCTTGTCGACGC
DNA 2: GCGTCGACAAGCTTTCTAGAAATTTTGATTTTATTGAATTCGGATCCCTCGAGCG
Regarding B15, in data set [8], the binding result is recorded as “binds”.
